# Experimental data published in patent publication US20100092484A1.
# Assays:
# [1] = target: human CD44 (on cells) (human) (UniProt P16070); test: cell-based or functional assay
# [2] = target: human CD44-IgG1 fusion protein (extracellular domain of human CD44 fused to human IgG1) (human); test: ELISA: antibody pre-mixed with human CD44-Ig (0.6 µg/ml); inhibition of CD44-Ig binding to plate-coated hyaluronic acid (HA)
# [3] = target: cynomolgus CD44 (on cells) (cynomolgus monkey); test: cell-based or functional assay
# [4] = target: lymphatic vessel endothelial hyaluronan receptor 1 protein (LYVE-1) (R&D, Cat. No. 2089-Ly) (UniProt Q9Y5Y7); test: ELISA on plate-coated LYVE-1 (50 ng), anti-goat IgG-HRP detection
# Sequence of lymphatic vessel endothelial hyaluronan receptor 1 protein (LYVE-1) (R&D, Cat. No. 2089-Ly) (Q9Y5Y7 24-232 limits assumed): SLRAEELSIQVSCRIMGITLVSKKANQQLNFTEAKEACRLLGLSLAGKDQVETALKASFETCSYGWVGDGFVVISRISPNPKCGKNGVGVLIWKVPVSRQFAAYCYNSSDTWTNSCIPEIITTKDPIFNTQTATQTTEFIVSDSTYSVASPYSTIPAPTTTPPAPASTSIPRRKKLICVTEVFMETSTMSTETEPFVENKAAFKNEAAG
# Sequence of human CD44 (on cells) (human) (P16070 other isoform, or with tags, fused parts or gaps limits assumed): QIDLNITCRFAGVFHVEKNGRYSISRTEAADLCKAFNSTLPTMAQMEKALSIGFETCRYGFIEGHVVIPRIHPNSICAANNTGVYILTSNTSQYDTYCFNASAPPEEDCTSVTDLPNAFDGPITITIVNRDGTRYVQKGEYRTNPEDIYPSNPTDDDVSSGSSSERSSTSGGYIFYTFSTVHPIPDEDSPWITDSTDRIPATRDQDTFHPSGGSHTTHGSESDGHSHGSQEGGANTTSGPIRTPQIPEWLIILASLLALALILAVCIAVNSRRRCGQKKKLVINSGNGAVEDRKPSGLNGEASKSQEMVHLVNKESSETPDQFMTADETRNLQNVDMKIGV
# Sequence of human CD44-IgG1 fusion protein (extracellular domain of human CD44 fused to human IgG1) (human) (chain, as listed by the source limits assumed): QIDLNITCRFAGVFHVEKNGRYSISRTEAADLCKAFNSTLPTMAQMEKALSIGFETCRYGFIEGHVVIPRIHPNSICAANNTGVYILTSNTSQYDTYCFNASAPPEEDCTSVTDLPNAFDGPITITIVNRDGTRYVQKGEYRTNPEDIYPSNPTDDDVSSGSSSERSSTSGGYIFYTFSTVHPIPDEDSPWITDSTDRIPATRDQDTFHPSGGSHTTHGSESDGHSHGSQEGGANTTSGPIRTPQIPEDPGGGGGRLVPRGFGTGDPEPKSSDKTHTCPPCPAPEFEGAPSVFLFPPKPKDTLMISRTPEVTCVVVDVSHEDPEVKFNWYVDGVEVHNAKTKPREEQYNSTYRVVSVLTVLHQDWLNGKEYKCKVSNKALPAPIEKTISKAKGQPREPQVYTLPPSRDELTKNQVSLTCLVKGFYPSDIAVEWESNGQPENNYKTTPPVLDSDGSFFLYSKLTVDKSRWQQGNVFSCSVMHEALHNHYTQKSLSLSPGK
# Sequence of cynomolgus CD44 (on cells) (cynomolgus monkey) (P16070 other isoform, or with tags, fused parts or gaps limits assumed): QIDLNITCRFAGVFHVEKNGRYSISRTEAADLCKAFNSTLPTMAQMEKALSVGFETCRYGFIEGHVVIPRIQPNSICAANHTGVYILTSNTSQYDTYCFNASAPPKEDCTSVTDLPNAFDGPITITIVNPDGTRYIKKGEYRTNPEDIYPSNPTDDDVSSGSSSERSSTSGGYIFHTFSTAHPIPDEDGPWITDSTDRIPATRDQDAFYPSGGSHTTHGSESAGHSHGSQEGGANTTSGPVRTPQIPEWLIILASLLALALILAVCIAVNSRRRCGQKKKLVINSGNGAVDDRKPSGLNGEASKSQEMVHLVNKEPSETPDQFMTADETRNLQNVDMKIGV
Substance,IC50 of IL-1β release from purified human PBMC stimulated by HA [1],IC50 [2],IC50 of reduction of CD44 surface expression on cynomolgus peripheral CD3+ T cells (FACS) [3],IC50 of reduction of CD44 surface expression on human peripheral CD3+ T cells (FACS) [1],EC50 [4]
"anti-CD44 antibody 515 (BD Bioscience, Cat. No. 550990)",1.46 µg/mL,0.32 µg/mL,–,–,–
"anti-CD44 antibody IM7 (BD Bioscience, Cat. No. 553134)",1.62 µg/mL,1.85 µg/mL,9.9 µg/mL,1.5 µg/mL,–
"anti-LYVE-1 antibody (R&D, Cat. No. AF 2089)",–,–,–,–,0.1 µg/mL
